According to patent US20110129935A1, “PROTEIN STABILITY ASSAY USING A FLUORESCENT REPORTER OF PROTEIN FOLDING” (James Cook University, priority 2008, published 2011):

Test: Thermal aggregation profiles and Tagg by SDS-PAGE
Type: physicochemical
Conditions: heat treated separately 30 minutes, 42 to 64° C.
Procedure: After incubation, reactions were stopped by transferring the samples to ice for 10 minutes prior to centrifugation at 18,000 r.p.m. for 20 minutes at 4° C. in a Beckman Coulter (Fullerton, Calif., USA) centrifuge (rotor: F12×8.2). The supernatants (3 or 5 μl) were then analyzed by 10% NEXT-GEL SDS-PAGE (Amresco, Solon, Ohio, USA). The gels were illuminated on a transilluminator at 365 nm followed by Coomassie blue staining. Coomassie-stained protein bands corresponding to Ffold were integrated using ImageJ (see the website at rsbweb.nih.gov/ij/) and plotted against the temperature.
To determine the Tagg at which 50% of proteins were aggregated, the thermal aggregation profile data were fit to the following sigmoid function:
Ffold=1−(1/(1+e^(Tagg-T/c))
where Ffold is the normalized fluorescence intensity at temperature T, and c is the Hill slope factor.
Ffold was then determined by SDS-PAGE. For this experiment, equal amounts of the three proteins were mixed to avoid variations in buffer composition and protein concentrations.
Due to the oligomeric quaternary structure of these proteins, experiments were performed separately to avoid the formation of heterogeneous protein complexes.

B1: GK: tetrameric glycerol kinase from E. coli (protein, UniProt P0A6F3 2-502, looked up)
Glycerol kinase: TEKKYIVALDQGTTSSRAVVMDHDANIISVSQREFEQIYPKPGWVEHDPMEIWATQSSTLVEVLAKADISSDQIAAIGITNQRETTIVWEKETGKPIYNAIVWQCRRTAEICEHLKRDGLEDYIRSNTGLVIDPYFSGTKVKWILDHVEGSRERARRGELLFGTVDTWLIWKMTQGRVHVTDYTNASRTMLFNIHTLDWDDKMLEVLDIPREMLPEVRRSSEVYGQTNIGGKGGTRIPISGIAGDQQAALFGQLCVKEGMAKNTYGTGCFMLMNTGEKAVKSENGLLTTIACGPTGEVNYALEGAVFMAGASIQWLRDEMKLINDAYDSEYFATKVQNTNGVYVVPAFTGLGAPYWDPYARGAIFGLTRGVNANHIIRATLESIAYQTRDVLEAMQADSGIRLHALRVDGGAVANNFLMQFQSDILGTRVERPEVREVTALGAAYLAGLAVGFWQNLDELQEKAVIEREFRPGIETTERNYRYAGWKKAVKRAMAWEEHDE
Question: Which Tagg does the source give for B1 here?
Answer: Its Tagg is 50.4±0.3 °C.
